Reference: the DeepSol protein solubility set

Assay: soluble on expression in E. coli; label from the status in PepcDB or PDB records

Soluble on expression in E. coli, not soluble:
MSMSNGDAQKDTKTTAETKQTEQKTADSKKSNTQNSEFSLESQYFNDIKKVDGLETIQNPENILALVNKQYALPGNYEPSDLVIPDVEFSFEEKIQKRYIRKEAADALKTMFDAAKKEGYELAAVSGYRSYDRQKVIFDNEVSLKGERKAKEAVAYPGESEHQTGLAMDISSRSNGFELNEAFGSTADGKWVQDNAYKYGFIIRYPKNKEDITKYEYEPWHLRYVGKKAAKVIQDNDLTLEEYFEKVKKILEHHHHHH
MSTFFQQTAQAMIAKHIDRFPLLKLDQVIDWQPIEQYLNRQKTRYLRDHRGRPACPLLSMFKAVLLGQWHNLSDPELEHSLITRIDFNLFCRFDELSIPDYSTLCRYRNRLAQDDTLSELLELINRQLTEKGLKVEKASAAVVDATIIQTVGSKQRQAIEVDEEGQVSGQTTLSKDKNARWTKKNSLYKLGYKQHTRTDAEGYIEKLHITPANAHECKHLSPLLEGLPEGTTIYADKGYDSAENRQHLEEHQLQDGIMRKACRNRPLTETQTKRNRYLSKTRYVVEQSFGTLHRKFRYARAAYFGLICARCRLKGSPDA
MKLPISTISPIHYIKSVVSSRETRSESNKSRRTFANTEWNKIIRETLYLETIYIPLDATSHSPDIIFQLQSPVEPKVLTVGVACKGRWKSEGIGWSDIIDEAKKFLDPLYDQVLSSAMDYHHCMLIIVSTKLSLNVSNELGN
MKPTLFLLAAGMGSRYGGLKQLDGLGPNGETIMDYSIYDAINAGFGKLVFVIRKDFEQDFREKIISKYEGHIPCELVFQSIDDLPEGFTCPADRTKPWGTNHAVMMGADVISEPFAVINCDDFYGRDSFQVMGKFLSALPENSKNVYSMVGFRVGNTLSESGTVSRGICSTDANNLLTSVVERTKIQRLDGEVKYIDDNGEWTATPDTTPVSMNFWGFTPDYFAYSEEFFKTFLSDPKNMENLKSEFFIPLMVDKLINDGTATVEVLDTTSKWFGVTYPEDRQSVVDKIQALVDAGEYPAKLF
MGSDKIHHHHHHMEKIIVNGRKNGQKIEIACSNLVMGAGDFLRADNMDFAGPVLDQYFEMGGNIFDTARHYRHSEKAIGAWMNMRGNRDSVIIQTKGGHPVREASDVPRVTPEAIHEDISVSLDTLQTDHVELFALHRDNPDVEVGSIMEAMHKEVEAGRVYAIGLSNWELSRIIEANEYAVNHGLTPLSFNSPNFSLAKVNRPRWENCVSANEEMIRWHEATNLPLFSWSSQAGGFFSGRFSEEDTSDTEMVEVYYSEANWERYSRAKQLANQKGCTPIQISLAYVLTQSFPTAAVIGPENTTELQSSVAAAGIKLTASEVDWLDLKA
MMDFEDFGNPLAGKPLSQADKAAAVLLAMGKGVAGKLLKFFTQHELQMIISSAQTLRVIPPDELAQIVAEFEDLFTEGTGLMDNAKAIESILEEGLTPEEVDSLLGRRAAFQAYEASIWDRLQEAEPEFVGKFLLREHPQTIAYILSMLPSSFGAKVLLTIPEEQRADIMNRTVNMKEVSPTAAQIIEKRVVNLINEIEAERNAGGSTKVADLMNELDKPQVDTLLSSLETLSKEAANKVKPKIFLFDDLMFMPQRSRVLLLNDVSADVLTMALRGATVEIKECVLSSISPRQRRMIESDLAVPQASLNTREVAIARRAVAQEAIRLANSGQIQLKDVAAEEQSAAA
MGSDKIHHHHHHMIFASDLDQTLIYSRKSFRAHIEDNSIQLIETLDGKEISFITYKTITLLIKLQLHSYFIPVTTRTIEQFQRITLFQNEIIPEYAITSNGGNILHNGKQDVTWNKEIKKRISVECIERNDILKEFEQIAHKDWVISQKTADDLFHYCIIKRENIPYDELSSFTSWLDKQGWNHSLQGRKLYFVPKPINKWDAVQYIQEILQMDTIITAGDSLLDLCMLEKANYAFAPLHGELGATYNHLQPHIVKTDAIGIYAAEEIVSKSLQIIHSSSPTS
MTEQSAHEKYEFKKKLEGLRDKKGRSTELISLYIPPDKQIFDVTNQLKDEHGQAANIKSKLTRTNVQGAIESLLSRLRYLDKVPENGIVYFTGAVDIGANKTSMESEVIVPPDPITVYKYHCDSSFYLEPLEDMLKDKNTYGLLVLDRREATIGLLVGKRIQPFRNLTSTVPGKQRKGGQSAHRFQQLRLIAIHDFYKRIGDAASEVFMAVDHKDLKGVLIGGPSPTKEEFHAGEFLHHELMKKILGLFDTAYTDESGLSELVNAAGEKLQDLELMGQKNAVRDFFKELIADSGKVAYGESQVRANLEINSVDVLLLSEDLRAERVTTKCSVCGYENKWTRRWKPGEPAPAAGNCPKCGSSLEVTDVTDIVDEFSELADKSNAKVVFVSTDFDEGSQLMNAFGGIAAILRYNTGV
MGSDKIHHHHHHMFDDKMSGNAMNAEIELKLFFLPIYQESLINKLDSLDNAVPQGKRRLANGYFDTPDLQLRQWDMGLRVRGYDAHREQTIKTAGQVVGGIHSRPEYNVTIQADSPDLSLFPASIWPADADLAATQAQLTCIFHTDFYRRSWHVQIDNSVVEVALDIGEITANGQQEALCELEFELLSGDTEALLKLAMQVASVVPVRLGKASKAQRGYRLAGKAKPLDLTALEFLPLAEPRDSSTQDLTANCQILLETALERWQLLESMIAEESKPEACVALWWRMRACIRLLRMTLSQFELLNVTLSSRFMSIEKQLDFIEQAQALTALLGSQRGLFAKLGQHAQVKARLMAQLSEIHLTERLLSLWQQTEYGQLQLAIVEILLKVSAGEVDISNQPSLRQHADRAQQASWMAIVEVMPLNTVMTSANYLQVAAVLDESILVGHAYGSLYEAKSRDAFRAPWQDLVLGIKTLACYRAVQDASRELDIDLNEWLEDKQQSLLFAMESTRRNAMQQQAYW
MGSDKIHHHHHHMTFEPYPFERLRALLKEITPKKRGLDLGIGEPQFETPKFIQDALKNHTHSLNIYPKSAFEESLRAAQRGFFKRRFKIELKENELISTLGSREVLFNFPSFVLFDYQNPTIAYPNPFYQIYEGAAKFIKAKSLLMPLTKENDFTPSLNEKELQEVDLVILNSPNNPTGRTLSLEELISWVKLALKHDFILINDECYSEIYENTPPPSLLEACMLAGNEAFKNVLVIHSLSKRSSAPGLRSGFIAGDSRLLEKYKAFRAYLGYTSANAIQKASEAAWLDDRHAEFFRNIYANNLKLARKIFKNTLIYPYSFYVYLPVQNGENFAKTLYQNEGIITLPALYLGRNRIGADYVRLALVYDTPLLEKPLEIIETYRENHA
MSLGLSFFSKHLPIQEGQPWALKTPADIISTVEFNHTGELLATGDKGGRVVIFQREPESKNAPHSQGEYDVYSTFQSHEPEFDYLKSLEIEEKINKIKWLPQQNAAHSLLSTNDKTIKLWKITERDKRPEGYNLKDEEGKLKDLSTVTSLQVPVLKPMDLMVEVSPRRIFANGHTYHINSISVNSDCETYMSADDLRINLWHLAITDRSFNIVDIKPANMEDLTEVITASEFHPHHCNLFVYSSSKGSLRLCDMRAAALCDKHSKLFEEPEDPSNRSFFSEIISSVSDVKFSHSGRYMLTRDYLTVKVWDLNMEARPIETYQVHDYLRSKLCSLYENDCIFDKFECAWNGSDSVIMTGAYNNFFRMFDRNTKRDVTLEASRESSKPRAVLKPRRVCVGGKRRRDDISVDSLDFTKKILHTAWHPAENIIAIAATNNLYIFQDKVNSDMHEGHHHHHH

Soluble on expression in E. coli, soluble:
MNTPRIPIASHQAVMRCLRDKLQQANLTLQTDYTEPAVSYQQRGATAGTAWLQHWEIRLNPVLLQENQQTFIDEVVPHELAHLLVYARFGRVAPHGKEWRWMMENVLHVPAKRTHRFAVQSVQGKTFTYLCDCQRHELTIRRHNRVLRGETEYRCRRCGKTLRHDVKSSILEHHHHHH
MSLKISIVTSTNVYADIAKNIVGKYGSAKAIIKNSATDPHDFEPTTQDAKELSSTNIIVANGLGYDSWMNKLASSVDKKPVLVGEELMKLKKGANPHIWYSLSMPTEYVDYLVKRLSKIDSKHKAYFEANGKKYLAKINQVKALAKNSKKTDKMVFVSEPVFDYALAEAGYKIGDKDFEKAVENNTDPSPKTINRMTNDIKNKKIAFFVNNTQSSSSTVKTFVKLAKQNNIPVLNVRETIPNHTTYLNWMKENYQNLANISKEGHHHHHH
MSLKKRIFVTGGAEGIGRAIVEAFCKDGHQVAFCDINAVSGQQTARDTGAIFHPVDVSDKEALESCMQQILDEWKDIDIVINNVGISKFSSITETSVEDFDKILSVNLRPVFITSRLLAIHRKAQSDSNPYGRIINICSTRYLMSEPGSEGYAASKGGIYSLTHALALSLSEWNITVNSIAPGWIQTQNYDQLRPEDHSQHPSRRVGKPEDIARMCLFLCRDENDFINGENITIDGGMTKKMIYTEGHHHHHH
SPLLLYTCLLWLPTSGLWTVQAMDPNAAYVNMSNHHRGLASANVDFAFSLYKHLVALSPKKNIFISPVSISMALAMLSLGTCGHTRAQLLQGLGFNLTERSETEIHQGFQHLHQLFAKSDTSLEMTMGNALFLDGSLELLESFSADIKHYYESEVLAMNFQDWATASRQINSYVKNKTQGKIVDLFSGLDSPAILVLVNYIFFKGTWTQPFDLASTREENFYVDETTVVKVPMMLQSSTISYLHDAELPCQLVQMNYVGNGTVFFILPDKGKMNTVIAALSRDTINRWSAGLTSSQVDLYIPKVTISGVYDLGDVLEEMGIADLFTNQANFSRITQDAQLKSSKVVHKAVLQLNEEGVDTAGSTGVTLNLTSKPIILRFNQPFIIMIFDHFTWSSLFLARVMNPV
MSLRRILHMTEKKKKIGFNIVKNDSTDGHGGFGVGALSLENISPVFVDVLEKTAFVDIGAMHARSTVEKGIKFLTNKDEVPNGKPFWLVWVTIERTATGAYYAGVTACEMTVDREIRRGYKSLPEHVNKMDKSMKRHIMVDHMDESSKKVLGTFLKEHNEAIWNESGEELRRALLSEEGHHHHHH
MGHHHHHHSHKKLGLKVGIEIHQQLDTKHKLFCLCPTLTREVEESNFEFFRYLRLKRSEIGEEDRAAKEEVERSRRFIYKYYDTTCLVEADEEPPREVNREALLIAIQVAKMLNMEVVDEVHVMRKIVIDGSNTTGFQRTALVAFGGFLEVDGKRVGVATLCLEEEACRKVEDGEGYAVYSLDRLGIPLVEIGTEPDIDSPEMAKKVAARLGMILRSTGKVKRGLGTIRQDVNISIRDGARVEIKGVQELDILDKIVEYEVLRQVNLLKIR
AIALWKLVENVKYEDIYEDRHDGVPSHSSRLSQLGSVSQGPYSSAPPLSHTPSSDFQPPYFPPPYQPLPYHQSQDPYSHVSDPYSLNALHQPQQHPWGSRQRQDLQGTESGGLLPQPRASLPQLSGLDPRRDYSTVRRPDVLLHSTHHGLEAGMGDGLSLHGLAHGMDDVQAVEDLNGAMNILDRTPLGNSRPSPILEPGIQSCLSHFSFITHGFGSPAICAALTALQNYLTEALKGLDKMFLNNPTPNRHTPADGSKGGEKEEKHRK
SRDEIATTVFFVTRLVKKHDKLSKQQIEDFAEKLMTILFETYRSHWHSDCPSKGQAFRCIRINNNQNKDPILERACVESNVDFSHLGLPKEMTIWVDPFEVCCRYGEKNHPFTVASFKGRWEEWELYQQISYAVSRASSDVSSGTSCDEESCSKEPRVIPKVSNPKSIYQVKSVPVLFYTFFLSNSKKNALIMKTKKQKNMERTKL
MSLSQRTYGYGRVSTDEQTTSQQLTAIREAGHKVSDNRFIVDEGVSGGVCAMERPAFRNLVENKLEKGDTLVIAKLDRLGRDNIDVQQVVQMLTDKGIKLFILDLPVADLSSPEGKLMLQMFATFAEFEKNRISERIRDKLKQLKQEGKALGRPTKNVYDDVQELKAQGISQRTIADKLNVSLSTVRRNWVDTKRSLEVVTESGEGHHHHHH
MQEQAQQFIFKVTDKAVEEIKKVAQENNIENPILRIRVVPGGCSGFQYAMGFDDTVEEGDHVFEYDGVKVVIDPFSMPYVNGAELDYVVDFMGGGFTIRNPNATGSCGCGSSFSCGLEHHHHHH
